Several values for one entry are separate records, joined by “and”; a condition that tells them apart may be missing. Equal entries are not always repeated.

For data set [1], the target named is CaMKIIβ full-length hub domain (residues 534-666) (human). As to the kind of experiment: crystal structure.
Data set [2] has the same target. As to the kind of experiment: crystal structure. This is another data set of the same source.
Data set [3] shares this target. The data set can be described thus: mass photometry.
Data set [4] shares this target. As to the kind of experiment: mass photometry. This is another data set of the same source.
Data set [5] addresses CaMKIIα hub domain. The data set can be described thus: mass photometry.
Data set [6] deals with the molecule itself. As to the kind of experiment: SEC-MALS. On the technique in general: In gel filtration, larger molecules generally elute earlier.

Turning to “CaMKIIβ full-length hub domain (residues 534-666) (domain or fragment)”, the stoichiometry N (in general, the number of molecules, sites or subunits per partner or assembly) in data set [1] is 16; in data set [2], 14; in data set [3], 14 and 16; in data set [4], 12 and 14 and 16.
In the case of CaMKIIα hub domain (domain or fragment), the stoichiometry N in data set [5] was found to be 16.

B1: CaMKIIβ hub dimer variant (F585A + L622M) (domain or fragment, human, UniProt Q13554 534-666, looked up)
chain: RKQEIIKTTEQLIEAVNNGDFEAYAKICDPGLTSFEPEALGNLVEGMDFHRAYFENLLAKNSKPIHTTILNPHVHVIGEDAACIAYIRMTQYIDGQGRPRTSQSEETRVWHRRDGKWQNVHFHCSGAPVAPLQ
For B1, in data set [6], the “stoichiometry N” value was found to be 2.

Source of the values: paper doi:10.1101/2023.10.09.561517 (bioRxiv, 2023).
